Test: soluble fraction after stress (log2 fold change); higher = more stays soluble; pooled small domains, quantitative proteomics
Details: stress: 75 degC
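Also: 20 min heating vs room temperature control held 20 min.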

HMGKAVTLEEARAIIQAKVPGASPDMIQIWEEHGDGRGRYEGELSYNNMKYEFEMDPKTGIIFDWNA
soluble fraction (log2): -0.0538

HMGKEDISQINKLYQNQILDYETYIDTLNSFNIDTKSKDFKNLLDLFIKKSISFETFNKGIINIHNKS
soluble fraction (log2): 0.328

HMGKFMVQVGAFSRINGAEITRTKYDNLGTHKAIIKNLDGMNRVFLTGFLSEDEARDFIASSNLKGAFIIR
soluble fraction (log2): -2.13

HMGKGVDKIMKMADDYSYGKIAGKTVDVMTAKLFQAAYNKAPQKAKDKVDKMNEKQLYIFMMNLWKRF
soluble fraction (log2): -0.768

HMGKIILLFSDDDGVFDTALYRVRNYDGHRFAQSLGNAEMKWRHSEDEYFDFVLTSLREDGYDIEEIE
soluble fraction (log2): -1.18

HMGKIINMSKVKQVLRLHTQGVSNRRIALDLGLYKGTVNSYIRKIKDHGYDIAEVLKLDDPVLESKLFA
soluble fraction (log2): -0.335

HMGKKGPELNDNEKIIFNIISKENSMNLDDLKNRTELSNKQWDKAIKGLRSHELVNIEKIDDQLLIHL
soluble fraction (log2): 0.0386

HMGKKQLVVDLQSIITDVPAALKSYGLEIGQDGKSLIYTYDTKGERTGITTLLNDLQKAGLQMTDMKTQQ
soluble fraction (log2): -0.0104

HMGKPTPASQVATRWLAGDLPETLPVAGPAPSFETLARSVSTDFHPRAVLQELLRLGVAEEADGRVRLLK
soluble fraction (log2): -0.212

HMGKQPLYEQLVDLLRDRIENDMETGELLPSERKLAHHFGLSRTTVRLAMDRLETLGLITRVHGKDTFVAE
soluble fraction (log2): -1.52

HMGKREKTKVANRQAILVAARAVFAELGYEAATVRDIIRGTDLASGTFYNYFKSKEEVFDALADDGA
soluble fraction (log2): -1.73

HMGKSETALELIKRGHRLIADDAVEITRIGSTLSGTAPELIRNYLEVRGVGVIDVEKLFGVGAVQDSTQI
soluble fraction (log2): 0.0405

HMGKSPLDALSAREKEVLTYITRGVSINDIAAVLYLSPKTVSTHKTNLMQKLGIENNADLILFGVNHGLND
soluble fraction (log2): -1.51

HMGLIAPMPGQIRSVAVSVGDVVKKGQTLLTMEAMKMEIRIQALKDGRVTALHAAQGQTVEGEQILIEVE
soluble fraction (log2): -2.32

HMGLLEMPSERERQVLVLIAEGLSNKEIAARLYLTEGTVKNHAHSLYAKLNVTTRTLAIARARQLGI
soluble fraction (log2): -1.37

HMGLLLSQLDKDYQRYIDLADSTFRDNQLAVSRGWYNRALGVKAAEKYPKDQIAEIEKKIAERM
soluble fraction (log2): -0.598

HMGLNEGLNEGQQKVIQHIQENEGIKVKEISLKLNMPIDTVDRHIRVLKNLNLIERRGSRKTGGYFISN
soluble fraction (log2): -0.461

HMGLNELQVKLNEAMQRLSLKHRTVVVMHDIEGIPHDEIAKIVGVSVGTIRSRLFYARRQLQADLGEY
soluble fraction (log2): -2.32

HMGLNNVSDILRLDFNSFKKKFDKLPSGYKNSVVEQAALMIKSGELDSIKIKDYIEKSMGIELDI
soluble fraction (log2): -0.511

HMGLQDLFLNSLRKSKTPVTMFLVKGVKLQGVVTWFDNFSVLLRRDGMSQLVYKHSISTIMP
soluble fraction (log2): -0.0352

HMGLSARIAQRIHGLRTAQRMSLEALAARSGVSRSMISLIERNEASPTAVVLEKIATGLNVVLAALFDTP
soluble fraction (log2): -1.76

HMGLSNYEFNSISQTVKEKLEQGPLTLKALVDETAHLFAEDKVVSVVQWLIDQRDLAYDDHGLLQWKG
soluble fraction (log2): -0.792

HMGLTLREKMGHVLEMLKGREFLPFVSLFTVEEGRIGVVVTFMSILELVKEGILDLVQTESFGPIHVKAR
soluble fraction (log2): -0.541

HMGMAETTARILQLLGLLQSRRGWSGQELAERLGVTTRSVRRDVERLRELGYPVHASAGHGGGYQLGA
soluble fraction (log2): -2.18

HMGMGDALRILFNQAMLIEREQYLQAGAYERNENPVNYANGFKAKTLNTRVGALEVAVPQTRDSAFYPSFL
soluble fraction (log2): 0.0631

HMGMLATFVTSAKVPDDVVYAITKEVFENLDEFKKLHPALEGLTRETMLEGLTAPIHPGALKYYKEAGLM
soluble fraction (log2): -0.533

HMGMSQQKQSSTVRIIMQDISDANEGLMKMSQIIDAALAEGISETIVRNAISNLHRGGTIYESQTGTYQW
soluble fraction (log2): -0.196

HMGMTDEELNREEERVVAELEAKDEEELTIYNEEDLTFEETLDLPEGSLMRDRENGMIYLKVLDIWMPY
soluble fraction (log2): -0.575

HMGMTNRIKELRKAKGYRQEDLAAALGVSRQTIIAVENNKYNPTLELAMKLARHLQTTVEELFQL
soluble fraction (log2): -2.01

HMGMVEFEIGERDHSEDVSRKLFEAGLIEDASDFNQYMIEKKMDDHLQTGKYQIPKGATKDEILELIVR
soluble fraction (log2): 0.043

HMGMYAEERHQAIASLARKHGRVSVAELAERFNVTSETIRRDLDSLARRGLLTRVHGGAVPVE
soluble fraction (log2): 0.0144

HMGMYFTEMRKNEGLIALNGVAESNKRVSDLMDNLKDSSSFDAADIKAVKSGSGDASSLMDFELLVT
soluble fraction (log2): -0.0643

HMGNASQAARRQRIVDAALELLQDRPYDQIQMRDVAEGAGVALGTLYRYFPSKEQLFAHVLVE
soluble fraction (log2): -0.286

HMGNEMQVPNVAGKTVDEAIEIFNNMGLKVAAENKYAQSDDVKEGDVVKTDPSSGRNVKKGSEITLYISQG
soluble fraction (log2): 0.375

HMGNEVMYRQDLSEQELLSFIKKYTGQDEVTHIVVGAPKQRDNTPSPVETKITPFVVQLKAQFPDVNVV
soluble fraction (log2): 0.0976

HMGNFNDMLKYLRVREKMSQAELADKLGVSKSTVGMYELGKREPDFETLEAIADLFNVDMNFLLGK
soluble fraction (log2): -0.423

HMGNHMSFKMWGEQLQEAFRALETYDTQKAKTILNELVRFPIDSDITKALKGIISNIDDMMA
soluble fraction (log2): -0.881

HMGNLPPAVINARIKVSPAGRGVFVGFDKGSTSTEAKYADAIRGYLPNIEFNKDDHESVVTVPFNFR
soluble fraction (log2): -0.0124

HMGNTLAYSEFRQKVQEGAVKQVVLSEDRVTGELTNGDRFTANIVRDPELLKMLNDNNVKYDGKPT
soluble fraction (log2): 0.154

HMGNVGEAIEALVKGFQEGNQFQTLLGVTGSGKTFTMANVIAALNKPTLIISHNKTLAAQLYLSLIHIS
soluble fraction (log2): 0.277

HMGNYRVIKWGMQGDDVKLMQQMLINRGYVLSATGKYASRTLKAIMAFQEANGLKADGIVGKRTWNKLL
soluble fraction (log2): -2.78

HMGPAYEKIVANGQTFYRYNVKKGEGLMAVSRTFNVSVNDILKYNPSAASGLKDGQELLIPVIDDA
soluble fraction (log2): 0.16

HMGPESKLTDAIKDYIYALYENLKGKSKFRNTIIEEVKKLYGVDISRESIRRVVNQKTDAETTENDDDEKA
soluble fraction (log2): 0.432

HMGPKALLKIPGLQEVDAELLFKEGYKSISAVASADPEMLKAIPGVDEQKVTEWVTGAEQILSQQVNKGA
soluble fraction (log2): 0.49

HMGPKPVDMSPIPEGQRNQVLHDWMYGRAANHPENWGQIRSDALERGLKSGLKADEIHAITGSVARALGLE
soluble fraction (log2): 0.0169

HMGPNPLTEREQEILQLARTGEPVARLAKRLFLSPGTVRNHLSSAIGKLGAANRVEAAQFATERGW
soluble fraction (log2): 0.0399

HMGPSLDAVREQIRDLIAEEDKSAPYSDLSLVAELEKRGIHISRRTIAKYRGEMGIPNSDQRRYF
soluble fraction (log2): -0.0939

HMGPSSIVVYVSGAVKTPGVYTLAPGSRVDDAVRAAGGLSERAESAGTNLAAQLSDGEHVHVAAAGE
soluble fraction (log2): 0.0915

HMGPTGGLTPHIAIADKRASEAIEFYKQAFGAVEQVRMPAEDGVRLMHAHLLVNGSSLMMHDDFPEYSGQ
soluble fraction (log2): 0.133

HMGPTLSPAEKRVFEVIPYDAILQDMVIRAAELPPGEVLAALTTLELKGLIKRLPGNLVMRRAR
soluble fraction (log2): -0.294

HMGPVALGVTDGATYFSSVTITFRRGTAVLDGEPIASGHTVYKSGAHSLTLTAGGKTRTIAFTMDT
soluble fraction (log2): -4.04

HMGPVPLASAADMEKFYSHLQQVLDEVDFKDRTGSGHLMARLRRLFQRTVLDQNEINILRGILMAVQGRR
soluble fraction (log2): -3.03

HMGQGAASAPLRELGVDPVSEKQMVLKDGRFGPYVTDGETNASLRKGDEVETITDERASELLQMRRDAGPS
soluble fraction (log2): -0.139

HMGQISDDGALKKLASEVLAANPQALADWKAGKQQAVSFLVGQAMKASKGRGDAALLGELIRAALD
soluble fraction (log2): 0.2

HMGQKASEVEKIFVELQQQIIRGDLPPGYRLVESQIAAQFGVSRTPARLAIERLATAGLVAHETNRGATVH
soluble fraction (log2): -0.823

HMGQKNEDESLAKFYVHKKGNQYGPYSLIQIREYLKNNSFSLDDLASWDGQSWKKISQIPNLN
soluble fraction (log2): 0.12

HMGQLTDKQILLFSGKLAYEPTFASKYSKAGESYDDFIIRISGDLTDPKKIKEYSPYLKELGF
soluble fraction (log2): -0.35

HMGQNYTIVKGDSLWKIAQKQYGDGSQWKKIYDANKDAIESAAKKYGKKSSDSGKWIYPGVSLII
soluble fraction (log2): -0.112

HMGQVEVPDVVGMTQERAITTLTEAKLVAQIQLTPADVAKGLVAAQSPRAGLKIGEGSFVTIEVSTGPVI
soluble fraction (log2): -0.306

HMGQVFEGTFNRKANGKNSVTPAEGGEPVFIAERNSLHAMNGDLVKVSLLAKKKHQPREAQVIEILKRSD
soluble fraction (log2): 0.128

HMGQVPPLTRRETEIARLVSRGLSNKEIASTLVISPRTAEGHVEHILDKLGFSSRTQIATWLNEQTRNGK
soluble fraction (log2): -0.14

HMGRDWKTDLLNLATARGWGDVSYEVTGEGPDHARVYTAVAIVANQKTGTGVGPSKKEAERLAAEQAYRML
soluble fraction (log2): -0.099

HMGRELSDLELSLLRILDDKIPLLIDEAADRLQLPVAQVLSAVTIMEIDGLIRREGMRKYLRTVEVEETK
soluble fraction (log2): -1.63

HMGRFAETVEHIVAAQLARRQGIPTMEQFASFFNVSRATFQRRLGEEGETLEQIKQRVRLRLALELLHP
soluble fraction (log2): -3.1

HMGRGAAKGPLKELGLDPVTGRPLVVKDGKFGMYVTDGETNAGLRRGDLVEQLTLDRGMELLAERRARADQ
soluble fraction (log2): 0.201

HMGRKIDDPSSMTGAEKAAVILLALGDEQRQLWEMMDDEEIRVVSQAMVNLGNVTSGAVEKLIMEFVGSMS
soluble fraction (log2): -0.37

HMGRKPATTIPLQVRNAVLDLYRTKYYGANFQHYTELLHEHEGIRISTSSVAKILEAEYILSPK
soluble fraction (log2): -1.58

HMGRKPVSPEIVERVLQLAKSNPDWGYEHIAGTMRYLGYNVSATTIRHILEANGIVPDPERRL
soluble fraction (log2): -0.464

HMGRMSLDEAKAVILPIGEHKGHTMGEVLAIKPGLIDFYASQKFNSGKYPYLKEAAQVILENQG
soluble fraction (log2): -0.0288

HMGRRERKKLQSRRAIIEAAVTEFKEKGFREASVADIMTRADLGLGTFYNYFQSKEDILMSLLS
soluble fraction (log2): -0.0594

HMGRRRAAPQEPLRQFPASPVTGQPIKLLLGQYGPYVTDGTTNASLPKGSSPDELTFEQATQLLAERALRG
soluble fraction (log2): 0.0333

HMGRSARVQQAVHQAVRALLEENDGERSALSVPLVAERAGVNSSTIYRRWGDLPRLLAAVASN
soluble fraction (log2): -0.686

HMGRTVKGVNFVGLRDAGDPVDLAEIYSKEGADELVFLDITATHEKRKTLLDLVTRVAERINIPFTVGGGI
soluble fraction (log2): 0.056

HMGSALLEAGADDAGQRLDQWLAAKLGPSISRSRVQALIKQGAVLVGGKPAGEAKRKLVAGDVVSVALPEP
soluble fraction (log2): 0.0393

HMGSDLVAWAQTRIGRHPEEAADVIAALIDRHGEARVRAASRSLLARKFAHASDLRTAIDAAIG
soluble fraction (log2): -0.365

HMGSEEMLGALGVVERATDDGDWWIAVHGEHWRARSAQALVPGDRVRVARIDGLTLTVTPIA
soluble fraction (log2): -0.632
